B1: pseudorabies virus (PrV) assemblin pUL26N, protease domain of pUL26, residues 1-224 (enzyme)
chain: MGPVYVSGYLALYDRDGGELALTREIVAAALPPAGPLPINIDHRPRCDIGAVLAVVDDDRGPFFLGVVNCPQLGAVLARAVGPDFFGDMRLSDEERLLYLLSNYLPSASLSSRRLAPGEAPDETLFAHVALCVIGRRVGTIVVYDASPEAAVAPFRQLSARARSELLARAAESPDRERVWHMSEEALTRALLSTAVNNMLLRDRWELVAARRREAGVRGHTYLQ
notes: also called PrV protease; VP24
B2: diisopropyl fluorophosphate-inhibited pseudorabies virus (PrV) assemblin pUL26N, residues 1-224 (enzyme)
chain: B1 chain

Tests used:
[1] = target: the molecule itself; assay: small-angle X-ray scattering (SAXS)
crystal structure = target: the molecule itself; assay: crystal structure

| Protein | stoichiometry N [1] | stoichiometry N (crystal structure) |
| --- | --- | --- |
| B1 | 2 |  |
| B2 |  | 2 |

Source: article PMC4498786, “Dimerization-Induced Allosteric Changes of the Oxyanion-Hole Loop Activate the Pseudorabies Virus Assemblin pUL26N, a Herpesvirus Serine Protease” (PLoS Pathogens, 2015)
